From patent publication US20220403031A1 come the findings set out here.

What is called EC50 is the midpoint of the concentration-response curve. In general, IC50 refers to the concentration that gives 50% inhibition. One may read the Kd as the equilibrium constant for the complex coming apart.

Experiment [1] concerns the target human PD-L1 on CHO-K1 cells (W315-CHO-K1.hPro1.C11) (human) (UniProt Q9NZQ7). The experiment is described as follows: FACS on human PD-L1 CHO-K1 cells.
Experiment [2] deals with cynomolgus monkey PD-L1 on 293F cells (W315-293F.cynoPro1.2A2) (cynomolgus monkey) (UniProt G7PSE7). Put plainly: FACS on cynomolgus PD-L1 293F cells.
Chain of cynomolgus monkey PD-L1 on 293F cells (W315-293F.cynoPro1.2A2) (cynomolgus monkey) (G7PSE7 entry or part of it): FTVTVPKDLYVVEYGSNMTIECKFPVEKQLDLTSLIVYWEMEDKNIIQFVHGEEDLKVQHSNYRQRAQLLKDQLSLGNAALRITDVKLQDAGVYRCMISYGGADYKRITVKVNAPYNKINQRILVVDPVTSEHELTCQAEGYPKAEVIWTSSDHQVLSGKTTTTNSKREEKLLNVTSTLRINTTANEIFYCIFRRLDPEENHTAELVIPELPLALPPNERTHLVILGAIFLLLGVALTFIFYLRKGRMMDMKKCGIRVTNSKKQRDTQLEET
Experiment [3] deals with human PD-L1 on CHO-K1 cells (W315-CHO-K1.hPro1.C11) (human) (UniProt Q9NZQ7). Put plainly: FACS competition: antibody titrated against 5 ug/mL human PD-1 ECD mFc on human PD-L1 CHO-K1 cells.
Chain of human PD-L1 on CHO-K1 cells (W315-CHO-K1.hPro1.C11) (human) (Q9NZQ7 19-290): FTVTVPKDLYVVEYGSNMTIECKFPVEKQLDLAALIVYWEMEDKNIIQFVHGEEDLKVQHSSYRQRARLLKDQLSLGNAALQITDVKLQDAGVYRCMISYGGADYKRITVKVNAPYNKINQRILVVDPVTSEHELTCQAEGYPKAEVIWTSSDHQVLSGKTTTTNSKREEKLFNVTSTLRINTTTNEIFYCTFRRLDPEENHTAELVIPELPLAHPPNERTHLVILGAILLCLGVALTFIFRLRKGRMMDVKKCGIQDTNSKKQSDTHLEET
Experiment [4] addresses 4-1BB.his (Homo sapiens (Human)) (UniProt Q07011). Put plainly: non-specific binding ELISA; secondary antibody alone on coated antigen. (In an ELISA, binding on a coated surface is turned into a signal by an enzyme label.)
Experiment [5] has as its target CD147.his. The experiment is described as above.
The target of experiment [6] is CD22.his. The description is as above.
The target of experiment [7] is CD3.his. The description is as above.
In experiment [8] the target is CD40. The experiment is described as above.
Chain of CD40 (P25942 21-193): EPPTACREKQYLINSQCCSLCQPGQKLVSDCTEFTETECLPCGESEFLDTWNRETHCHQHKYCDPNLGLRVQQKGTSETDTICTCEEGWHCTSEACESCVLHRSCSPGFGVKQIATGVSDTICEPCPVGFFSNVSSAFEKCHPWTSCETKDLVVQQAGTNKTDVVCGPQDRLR
The target of experiment [9] is CTLA4.his. The experiment is described as above.
Chain of CTLA4.his (P16410 36-161): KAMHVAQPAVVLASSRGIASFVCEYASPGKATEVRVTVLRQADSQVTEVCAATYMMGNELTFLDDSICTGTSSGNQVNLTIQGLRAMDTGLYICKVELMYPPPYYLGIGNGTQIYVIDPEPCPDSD
In experiment [10] the target is FGFR.his. The description is as above.
In experiment [11] the target is Factor VIII. The description is as above.
Experiment [12] has as its target HER3.his (Homo sapiens (Human)) (UniProt P21860). Described as above.
Experiment [13] deals with OX40.his. The description is as above.
Chain of OX40.his (P43489 29-214): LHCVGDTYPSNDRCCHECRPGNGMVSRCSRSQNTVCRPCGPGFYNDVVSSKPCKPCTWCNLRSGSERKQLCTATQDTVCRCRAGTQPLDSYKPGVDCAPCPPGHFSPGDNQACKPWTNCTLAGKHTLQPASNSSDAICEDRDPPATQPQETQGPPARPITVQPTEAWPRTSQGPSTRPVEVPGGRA
Experiment [14] addresses PD-1.his (Homo sapiens (Human)) (UniProt Q15116). The experiment is described as above.
Experiment [15] addresses VEGF.his. Described as above.
Experiment [16] deals with human serum Albumin (human) (UniProt P02768). The description is as above.
The target in experiment [17] is 4-1BB.his (Homo sapiens (Human)) (UniProt Q07011). Put plainly: non-specific binding ELISA; antigen coated at 2 ug/mL, antibody at 10 ug/ml.
Chain of 4-1BB.his (Homo sapiens (Human)) (Q07011 24-186 limits assumed): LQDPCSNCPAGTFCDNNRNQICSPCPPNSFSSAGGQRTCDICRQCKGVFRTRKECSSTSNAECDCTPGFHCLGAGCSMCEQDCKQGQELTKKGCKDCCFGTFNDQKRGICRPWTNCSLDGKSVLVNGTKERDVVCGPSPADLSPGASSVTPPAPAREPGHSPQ
For experiment [18], the target named is CD147.his. The experiment is described as above.
Experiment [19] has as its target CD22.his. The experiment is described as above.
Experiment [20] concerns the target CD3.his. Described as above.
The target of experiment [21] is CD40. The experiment is described as above.
In experiment [22] the target is CTLA4.his. The experiment is described as above.
The target of experiment [23] is FGFR.his. Described as above.
Experiment [24] has as its target Factor VIII. The experiment is described as above.
The target of experiment [25] is HER3.his (Homo sapiens (Human)) (UniProt P21860). Described as above.
Experiment [26] addresses OX40.his. The experiment is described as above.
The target of experiment [27] is PD-1.his (Homo sapiens (Human)) (UniProt Q15116). Described as above.
Chain of PD-1.his (Homo sapiens (Human)) (Q15116 25-170 limits assumed): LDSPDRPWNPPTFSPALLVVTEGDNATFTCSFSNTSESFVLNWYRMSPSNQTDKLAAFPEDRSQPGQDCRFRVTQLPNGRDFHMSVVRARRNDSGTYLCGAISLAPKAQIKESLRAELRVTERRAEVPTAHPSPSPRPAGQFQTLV
Experiment [28] has as its target VEGF.his. The description is as above.
For experiment [29], the target named is human serum Albumin (human) (UniProt P02768). The description is as above.
The target of experiment [30] is cynomolgus monkey PD-L1 on 293F cells (W315-293F.cynoPro1.2A2) (cynomolgus monkey) (UniProt G7PSE7). The experiment is described as follows: FACS affinity on cynomolgus PD-L1 cells, quantitative beads. On the set-up: Bmax: unit not given here.
Experiment [31] addresses mouse PD-L1 on 293F cells (W315-293F.mPro1.C1) (mouse) (UniProt Q9EP73). The experiment is described as follows: FACS on mouse PD-L1 293F cells.
Experiment [32] has as its target human PD-L1 on CHO-K1 cells (W315-CHO-K1.hPro1.C11) (human) (UniProt Q9NZQ7). The experiment is described as follows: FACS affinity on human PD-L1 cells, quantitative beads.
Experiment [33] concerns the target mouse PD-L1 on 293F cells (W315-293F.mPro1.C1) (mouse) (UniProt Q9EP73). The experiment is described as follows: FACS affinity on mouse PD-L1 cells, quantitative beads.
The target is the same in experiment [34]. The experiment is described as follows: FACS competition: antibody titrated against 5 ug/mL mouse PD-1 ECD mFc on mouse PD-L1 293F cells.

Chain of mouse PD-L1 on 293F cells (W315-293F.mPro1.C1) (mouse) (Q9EP73 19-290): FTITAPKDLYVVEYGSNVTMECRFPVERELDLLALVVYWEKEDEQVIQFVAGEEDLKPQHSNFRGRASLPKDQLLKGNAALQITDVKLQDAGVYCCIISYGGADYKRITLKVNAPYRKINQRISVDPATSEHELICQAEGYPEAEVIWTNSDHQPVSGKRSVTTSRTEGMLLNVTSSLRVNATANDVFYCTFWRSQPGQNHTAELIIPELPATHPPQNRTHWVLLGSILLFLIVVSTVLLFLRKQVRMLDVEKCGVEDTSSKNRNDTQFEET

For the substance “BMK9.Fc(IgG1) (Benchmark antibody 9, same sequence with KN035) (Fc fusion)”, the EC50 in experiment [1] came out at 0.456 nM; in [2] it was 2.33 nM. Also, the IC50 in experiment [3] is 0.798 nM.
Turning to “Goat anti-human IgG Fc-HRP (Bethyl, A80-304P) (antibody)”, the Absorbance at 450 nm in experiment [4] stood at 0.05; with CD147.his [5], 0.05; with CD22.his [6] it was 0.05; with CD3.his [7], 0.05; in the experiment with CD40 [8], 0.24; with CTLA4.his [9], 0.05. Moreover, the Absorbance at 450 nm with FGFR.his [10] is 0.13; in the experiment with Factor VIII [11], 0.06; in experiment [12], 0.05; with OX40.his [13], 0.05; in [14], 0.05; with VEGF.his [15], 0.06. In experiment [16], this substance displayed an Absorbance at 450 nm of 0.37.
For hIgG4K Isotype control (antibody), the Absorbance at 450 nm amounted to 0.07 in [17]; 0.06 in the experiment with CD147.his [18]; 0.06 with CD22.his [19]; 0.07 with CD3.his [20]; 0.25 with CD40 [21]; 0.09 in the experiment with CTLA4.his [22]. Also, the Absorbance at 450 nm in the experiment with FGFR.his [23] was found to be 0.13; in the experiment with Factor VIII [24] it was 0.15; in experiment [25] it was 0.07; with OX40.his [26], 0.06; in experiment [27] it was 3.29; in the experiment with VEGF.his [28], 0.11. Further, the Absorbance at 450 nm in experiment [29] is 0.41.
Turning to hIgG4L Isotype control (antibody), the Absorbance at 450 nm in [17] is 0.06; with CD147.his [18], 0.06; with CD22.his [19] it was 0.06; in the experiment with CD3.his [20] it was 0.07; in the experiment with CD40 [21] it was 0.24; in the experiment with CTLA4.his [22] it was 0.06. Besides, the Absorbance at 450 nm was found to be 0.13 in the experiment with FGFR.his [23]; 0.07 with Factor VIII [24]; 0.06 in [25]; 0.06 with OX40.his [26]; 0.05 in experiment [27]; 0.08 with VEGF.his [28]. Further, the Absorbance at 450 nm in experiment [29] was determined as 0.41.
The substance “BMK6.hIgG4 (Benchmark antibody 6, variable region of Imfinzi conjugated with human IgG4 constant region)” registered an EC50 in experiment [2] of 2.65 nM. In [30], the Bmax turned out to be 1.6e-08 and the equilibrium dissociation constant (Kd) came to 21 nM.
Take “BMK8.hIgG4 (Benchmark antibody 8, variable region of Tecentriq conjugated with human IgG4 constant region)”: the EC50 came to 1.48 nM in [31] and 2.19 nM in [2]. Besides, the Bmax stood at 3.3e-10 in [32], 8.3e-10 in experiment [33] and 8.8e-09 in experiment [30]. Besides, the Kd stood at 0.53 nM in experiment [32], 1.7 nM in [33] and 16 nM in experiment [30]. In experiment [34], this substance returned an IC50 of 1.45 nM.
